{"source": "paper PMC6003418", "key": {"SnLH3 [1]": {"biological_target": "SnLH3", "test": "native gel or EMSA"}, "SnLH3 [2]": {"biological_target": "SnLH3", "test": "SAXS"}}}
{"substance": "SnLH3 (natural protein)", "values": [{"measurement": "stoichiometry N", "setting": "SnLH3 [1]", "result": 3}, {"measurement": "stoichiometry N", "setting": "SnLH3 [2]", "result": 3}]}
